Test results reported in publication PMC10877986 (mAbs, 2024).
Read-outs that look alike come from different tables or passages of the source. Blank lines part the entries; values can stand above or below the binder they belong to.

Key:
Assay in all cases: SPR
[1] = molecular target: recombinant mouse PD-1 (Mus musculus, UniProt Q02242)
[2] = molecular target: recombinant cynomolgus monkey PD-1 (Macaca fascicularis (cynomolgus monkey), UniProt B0LAJ3)
[3] = molecular target: T1, recombinant human PD-1 (Homo sapiens, UniProt Q15116)
[4] = molecular target: T1, recombinant human PD-1; remark: listed apart in the source

T1 sequence (Q15116 25-170): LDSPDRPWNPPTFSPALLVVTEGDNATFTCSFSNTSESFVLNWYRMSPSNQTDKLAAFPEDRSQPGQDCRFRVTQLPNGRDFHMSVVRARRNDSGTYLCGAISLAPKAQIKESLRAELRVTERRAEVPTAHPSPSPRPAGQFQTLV
Sequence of recombinant mouse PD-1 (Q02242 25-169): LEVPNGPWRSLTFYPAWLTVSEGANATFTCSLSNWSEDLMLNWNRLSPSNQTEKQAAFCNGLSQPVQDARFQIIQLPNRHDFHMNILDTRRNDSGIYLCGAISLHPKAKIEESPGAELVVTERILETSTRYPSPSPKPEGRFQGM

B2: h1340.AA (antibody, V domains shown)
VH: EQQLVESGGGVVQPGRSLRLSCAASGFSFSSTYWIAWVRQAPGKGLEWIAAIYAGSSGNTYYANWAKGRFTISKDSSSTTVFLQMNSLRAEDTAVYFCARAGGAGGGVYTLTRLDLWGQGTLVTVSS
VL: AAQLTQSPSSLSASVGDRVTITCQSSQSVYNNNDLAWYQQKPGKPPKLLIYTPSSLTSGVPSRFSGSGSGTDFTLTISSLQPEDFATYYCLGGYDDDSDNAFGGGTKVEIK
- binding result [4]: binds

B3: h1340.SA.3 (antibody, V domains shown)
VH: EQQLVESGGGVVQPGRSLRLSCAASGFSFDSTYWISWVRQAPGKGLEWIAAIYAGSSGNTYYANWAKGRFTISKDSSSTTVFLQMNSLRAEDTAVYFCARAGGAGGGVYTLTRLDLWGQGTLVTVSS
VL: AAQLTQSPSSLSASVGDRVTITCQSSQSVYNNNDLAWYQQKPGKPPKLLIYTPSSLTSGVPSRFSGSGSGTDFTLTISSLQPEDFATYYCLGGYDDDSDNAFGGGTKVEIK
- binding result [4]: binds

B4: h1340.SA.6 (antibody, V domains shown)
VH: EQQLVESGGGVVQPGRSLRLSCAASGFSFSSTYWISWVRQAPGKGLEWIAAIYAGSSGNTYYANWAKGRFTISKDSSSTTVFLQMNSLRAEDTAVYFCARSGGAGGGVYTLTRLDLWGQGTLVTVSS
VL: AAQLTQSPSSLSASVGDRVTITCQSSQSVYNNNDLAWYQQKPGKPPKLLIYTPSSLTSGVPSRFSGSGSGTDFTLTISSLQPEDFATYYCLGGYDDDSDNAFGGGTKVEIK
- binding result [4]: binds

B5: h1340.SA.5 (antibody, V domains shown)
VH: EQQLVESGGGVVQPGRSLRLSCAASGFSFSSTYWISWVRQAPGKGLEWIAAIYLGSSGNTYYANWAKGRFTISKDSSSTTVFLQMNSLRAEDTAVYFCARAGGAGGGVYTLTRLDLWGQGTLVTVSS
VL: AAQLTQSPSSLSASVGDRVTITCQSSQSVYNNNDLAWYQQKPGKPPKLLIYTPSSLTSGVPSRFSGSGSGTDFTLTISSLQPEDFATYYCLGGYDDDSDNAFGGGTKVEIK
- binding result [4]: binds

Results, then the binder that gave them:

- Kd [1]: 1.72 nM
- Kd [2]: 0.42 nM
- Kd [3]: 0.3 nM
- Kd [4]: 0.1 nM
B1: h1340.CC (antibody, V domains shown)
VH: EQQLVESGGGVVQPGRSLRLSCAASGFSFSSTYWICWVRQAPGKGLEWIACIYAGSSGNTYYANWAKGRFTISKDSSSTTVFLQMNSLRAEDTAVYFCARAGGAGGGVYTLTRLDLWGQGTLVTVSS
VL: AAQLTQSPSSLSASVGDRVTITCQSSQSVYNNNDLAWYQQKPGKPPKLLIYTPSSLTSGVPSRFSGSGSGTDFTLTISSLQPEDFATYYCLGGYDDDSDNAFGGGTKVEIK

- fold decrease in affinity against h1340.CC [1]: ~4 fold
- fold decrease in affinity against rbt1340 [2]: 6 fold
- fold decrease in affinity against h1340.CC [3]: ~2.5 fold
- fold decrease in affinity against rbt1340 [3]: 4 fold
- Kd [4]: 0.7 nM
B6: h1340.SA (antibody, V domains shown)
VH: EQQLVESGGGVVQPGRSLRLSCAASGFSFSSTYWISWVRQAPGKGLEWIAAIYAGSSGNTYYANWAKGRFTISKDSSSTTVFLQMNSLRAEDTAVYFCARAGGAGGGVYTLTRLDLWGQGTLVTVSS
VL: AAQLTQSPSSLSASVGDRVTITCQSSQSVYNNNDLAWYQQKPGKPPKLLIYTPSSLTSGVPSRFSGSGSGTDFTLTISSLQPEDFATYYCLGGYDDDSDNAFGGGTKVEIK
